Five molecules from PMC7545189, “Structural characterization of the ICOS/ICOS-L immune complex reveals high molecular mimicry by therapeutic antibodies” (Nature Communications, 2020) can be followed below.

In assay [1] the target is T1, human ICOS-L ectodomain (residues 19-248), His-tagged, immobilised on Ni-NTA biosensors (human, UniProt O75144 19-248).
T1 construct: also called ICOS ligand; CD275; source: HEK 293F, transiently transfected, purified from the supernatant (HisTrap Ni-NTA); not shown: His6, C-terminal, kept
T1 sequence (looked up): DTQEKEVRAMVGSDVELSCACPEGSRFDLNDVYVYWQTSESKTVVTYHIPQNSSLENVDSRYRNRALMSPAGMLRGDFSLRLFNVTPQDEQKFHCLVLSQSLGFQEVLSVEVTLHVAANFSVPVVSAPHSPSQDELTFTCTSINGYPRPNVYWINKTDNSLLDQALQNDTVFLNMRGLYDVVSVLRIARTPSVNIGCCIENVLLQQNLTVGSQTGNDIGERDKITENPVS
In words: BLI; His-tagged ICOS-L on Ni-NTA biosensors (0.8 nm), untagged ICOS (wild-type and mutants) as analyte, 1:2 serial dilutions from 125 nM; PBS pH 7.4, 0.01% BSA, 0.002% Tween; 1:1 fit; apparent constant (avidity of the ICOS homodimer). Conditions: both partners purified.

Assay [2] deals with T2, human ICOS-L ectodomain (residues 19-248), crystallised in complexes (human, UniProt O75144 19-248).
T2 construct: not shown: Venus (monomeric variant), C-terminal, cleaved; His6, C-terminal, cleaved
T2 sequence (looked up): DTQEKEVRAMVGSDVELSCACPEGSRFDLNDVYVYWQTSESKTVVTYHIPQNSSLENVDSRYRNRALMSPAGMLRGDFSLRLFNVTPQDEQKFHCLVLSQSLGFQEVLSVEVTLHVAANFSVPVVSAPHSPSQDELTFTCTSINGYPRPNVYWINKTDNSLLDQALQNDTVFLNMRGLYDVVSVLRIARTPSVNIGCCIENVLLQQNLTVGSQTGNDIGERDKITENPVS
In words: crystal structure; ICOS (21-129)/ICOS-L (19-248)/VNAR complex, co-expressed and co-purified, 3.3 A; 0.1 M HEPES pH 7.0, 30% Jeffamine ED-2001. The following applies: both partners purified.

In assay [3] the target is T3, human ICOS ectodomain N110Q (N110 glycan knock-out mutant), analyte (human, UniProt Q9Y6W8 21-138, N110Q).
T3 sequence: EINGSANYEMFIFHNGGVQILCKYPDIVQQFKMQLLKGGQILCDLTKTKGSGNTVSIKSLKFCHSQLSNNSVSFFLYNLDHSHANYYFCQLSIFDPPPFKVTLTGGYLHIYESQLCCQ
In words: BLI.

Assay [4] has as its target T4, human ICOS ectodomain (residues 21-138), untagged, disulfide-linked homodimer (human, UniProt Q9Y6W8 21-138).
T4 chain: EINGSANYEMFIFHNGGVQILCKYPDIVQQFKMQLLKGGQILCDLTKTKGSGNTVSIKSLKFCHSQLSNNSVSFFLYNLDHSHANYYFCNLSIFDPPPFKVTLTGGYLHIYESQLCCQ
In words: BLI; ICOS-L immobilized. On the technique in general: In BLI a coated tip is dipped into the sample, and binding shifts an interference pattern.

Assay [5] concerns the target T4, human ICOS ectodomain (residues …). In words: BLI; ICOS-L immobilized.
Assay [6] has as its target T3, human ICOS ectodomain N110Q (N110 …). In words: BLI. The source holds these as a separate data set.
Assay [7] deals with T5, human ICOS ectodomain (residues 21-138), His-tagged, immobilised on Ni-NTA biosensors (human, UniProt Q9Y6W8).
T5 construct: human ICOS ectodomain, UniProtKB Q9Y6W8, residues 21-138, followed by a TEV cleavage site; The His6 tag of the vector lies C-terminal of TEV site and Venus, so the His-tagged form used for loading is probably the undigested ICOS-TEV-Venus-His6 fusion; also called inducible T-cell co-stimulator; CD278; source: HEK 293F, transiently transfected, purified from the supernatant (HisTrap Ni-NTA); not …
In words: BLI; His-tagged ICOS or ICOS-L on Ni-NTA biosensors, Fabs as analytes (prezalumab 1:2 serial dilutions from 31 nM); PBS pH 7.4, 0.01% BSA, 0.002% Tween; 1:1 fit. The following applies: both partners purified.

The target of assay [8] is T6, human ICOS ectodomain N110Q, His-tagged, immobilised for STIM003 binding (human, UniProt Q9Y6W8 21-138, N110Q).
T6 sequence: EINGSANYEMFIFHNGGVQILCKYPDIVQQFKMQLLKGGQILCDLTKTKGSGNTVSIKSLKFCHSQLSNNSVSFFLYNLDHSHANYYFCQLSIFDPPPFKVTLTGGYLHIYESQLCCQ
In words: BLI.

In assay [9] the target is T7, human ICOS ectodomain (residues 21-138), His-tagged, immobilised on Ni-NTA biosensors (human, UniProt Q9Y6W8 21-138).
T7 chain: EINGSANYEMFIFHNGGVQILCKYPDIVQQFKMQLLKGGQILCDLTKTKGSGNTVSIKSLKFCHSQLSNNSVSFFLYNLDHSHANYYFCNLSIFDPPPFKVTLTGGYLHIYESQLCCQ
In words: BLI.

The target in assay [10] is T6, human ICOS ectodomain N110Q, …. In words: BLI. This is another data set of the same source.
For assay [11], the target named is T7, human ICOS ectodomain (residues …). In words: BLI.
Assay [12] deals with T8, human ICOS C136A C137A N23Q (residues 21-138), crystallised with STIM003 Fab (human, UniProt Q9Y6W8, C136A | C137A | N23Q).
T8 construct: human ICOS ectodomain, UniProtKB Q9Y6W8, residues 21-138 with C136A, C137A and N23Q; not shown: Venus (monomeric variant), C-terminal, cleaved; His6, C-terminal, cleaved
T8 sequence (Q9Y6W8 21-138 N23Q/C136A/C137A): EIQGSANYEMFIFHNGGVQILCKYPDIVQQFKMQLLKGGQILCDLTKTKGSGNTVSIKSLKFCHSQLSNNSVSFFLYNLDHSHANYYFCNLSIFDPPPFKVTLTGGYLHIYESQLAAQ
In words: crystal structure; ICOS C136A C137A N23Q/STIM003 Fab complex, co-expressed and co-purified, then incubated 1:5 with anti-kappa VHH and gel filtered, 2.38 A; 0.2 M di-sodium hydrogen phosphate, 20% PEG 3350. Conditions: both partners purified.

As usually defined, the stoichiometry N is a count of units in the complex or per binding partner. A word on the Kd: it is the equilibrium constant for the complex coming apart. Lower therefore signals a tighter complex. The koff is the first-order rate constant of dissociation. A low value points to a long-lived complex.

B1: human ICOS ectodomain N110Q (N110 glycan knock-out mutant), analyte (receptor, UniProt Q9Y6W8 21-138, looked up)
chain: EINGSANYEMFIFHNGGVQILCKYPDIVQQFKMQLLKGGQILCDLTKTKGSGNTVSIKSLKFCHSQLSNNSVSFFLYNLDHSHANYYFCQLSIFDPPPFKVTLTGGYLHIYESQLCCQ
notes: human ICOS ectodomain, UniProtKB Q9Y6W8, N110Q removes the N-linked glycosylation site; limits are those of the ectodomain construct of the methods; also called ICOS N110Q; ICOS N110 glycan knock-out mutant; source: HEK 293F, transiently transfected, purified (as the ICOS ectodomain); not shown: Venus (monomeric variant), C-terminal, cleaved; His6, C-terminal, cleaved
On to B1, for which the “fold improvement in binding affinity against WT ICOS” value in assay [1] stood at 4.3 fold.

B2: human ICOS ectodomain (residues 21-129), crystallised with ICOS-L and VNAR (domain or fragment, UniProt Q9Y6W8 21-129, looked up)
chain: EINGSANYEMFIFHNGGVQILCKYPDIVQQFKMQLLKGGQILCDLTKTKGSGNTVSIKSLKFCHSQLSNNSVSFFLYNLDHSHANYYFCNLSIFDPPPFKVTLTGGYLH
modifications: N-linked glycan at N110 seen in the structure (two GlcNAc and three mannose residues)
notes: not shown: Venus (monomeric variant), C-terminal, cleaved; His6, C-terminal, cleaved
Take B2: the “stoichiometry N” value in [2] came out at 1.

B3: human ICOS-L ectodomain (residues 19-248), His-tagged, immobilised on Ni-NTA biosensors (ligand)
chain: DTQEKEVRAMVGSDVELSCACPEGSRFDLNDVYVYWQTSESKTVVTYHIPQNSSLENVDSRYRNRALMSPAGMLRGDFSLRLFNVTPQDEQKFHCLVLSQSLGFQEVLSVEVTLHVAANFSVPVVSAPHSPSQDELTFTCTSINGYPRPNVYWINKTDNSLLDQALQNDTVFLNMRGLYDVVSVLRIARTPSVNIGCCIENVLLQQNLTVGSQTGNDIGERDKITENPVS
For the molecule B3, the Kd in [3] worked out at 0.7 nM; in assay [5], 3 nM. In addition, the koff in assay [4] is 0.0012 s⁻¹; in [6] it was 0.00071 s⁻¹.

B4: STIM003 Fab (purified, for BLI) (Fab, V domains shown)
VH: EVQLVESGGGVVRPGGSLRLSCVASGVTFDDYGMSWVRQAPGKGLEWVSGINWNGGDTDYSDSVKGRFTISRDNAKNSLYLQMNSLRAEDTALYYCARDFYGSGSYYHVPFDYWGQGILVTVSS
VL: EIVLTQSPGTLSLSPGERATLSCRASQSVSRSYLAWYQQKRGQAPRLLIYGASSRATGIPDRFSGDGSGTDFTLSISRLEPEDFAVYYCHQYDMSPFTFGPGTKVDIK
notes: Fab heavy chain of STIM003; Fab light chain (kappa) of STIM003; Kappa light chain (KappaSelect purification); also called anti-ICOS monoclonal antibody; source: HEK 293F, transiently co-transfected LC and HC, purified (KappaSelect, MonoS, Superdex 200)
For B4, the binding result in assay [7] is recorded as “binds”. For the same molecule, the Kd in assay [8] is 1.8 nM; in assay [9], 2 nM. In addition, the koff was found to be 0.001 s⁻¹ in assay [10] and 0.00072 s⁻¹ in assay [11].

B5: STIM003 Fab (co-expressed with ICOS, for the crystal structure) (Fab, V domains shown)
VH: EVQLVESGGGVVRPGGSLRLSCVASGVTFDDYGMSWVRQAPGKGLEWVSGINWNGGDTDYSDSVKGRFTISRDNAKNSLYLQMNSLRAEDTALYYCARDFYGSGSYYHVPFDYWGQGILVTVSS
VL: EIVLTQSPGTLSLSPGERATLSCRASQSVSRSYLAWYQQKRGQAPRLLIYGASSRATGIPDRFSGDGSGTDFTLSISRLEPEDFAVYYCHQYDMSPFTFGPGTKVDIK
notes: as the heavy chain of m12; as the light chain (kappa) of m12; source: HEK 293S (Gnt I-/-), co-transfected with ICOS C136A C137A N23Q, complex purified
Turning to B5, in [12], the binding result is on record as “binds”.
